Source: JP2005027671A (dated 2005)
Blank lines part the entries; values can stand above or below the binder they belong to.

Assays:
可溶性ヒトVEGF受容体KDR 7N [1] = molecular target: T1, 可溶性ヒトVEGF受容体KDR 7N (human, UniProt P35968 20-757); experiment: ELISA, coated antigen from 10 ug/ml in 3-fold dilutions
T1 construct: range 1-738; The range 1-738 counts on the mature protein (after the 19-residue signal peptide)

ヒトVEGF受容体Flt-1(細胞表面発現) = molecular target: T2, ヒトVEGF受容体Flt-1(細胞表面発現) (human, UniProt P17948 27-1338); experiment: inhibition of 125I-VEGF binding to NIH3T3-Flt-1 cells, purified antibody
T2 construct: whole, on cells; also called NIH3T3-Flt-1細胞; ヒトVEGF受容体Flt-1発現NIH3T3細胞

可溶性ヒトVEGF受容体KDR 7N [2] = molecular target: T1, 可溶性ヒトVEGF受容体KDR 7N; experiment: ELISA, coated antigen 4 ug/ml
可溶性ヒトVEGF受容体Flt-1 7N = molecular target: T3, 可溶性ヒトVEGF受容体Flt-1 7N (human, UniProt P17948 27-750); experiment: inhibition of 125I-VEGF binding to coated Flt-1 7N, purified antibody
T3 construct: range 1-750; also called 可溶性ヒトFlt-1 7N

可溶性ヒトVEGF受容体KDR 7N [3] = molecular target: T1, 可溶性ヒトVEGF受容体KDR 7N; experiment: ELISA, coated antigen 4 ug/ml, antibody titrated

T1 sequence (P35968 20-757): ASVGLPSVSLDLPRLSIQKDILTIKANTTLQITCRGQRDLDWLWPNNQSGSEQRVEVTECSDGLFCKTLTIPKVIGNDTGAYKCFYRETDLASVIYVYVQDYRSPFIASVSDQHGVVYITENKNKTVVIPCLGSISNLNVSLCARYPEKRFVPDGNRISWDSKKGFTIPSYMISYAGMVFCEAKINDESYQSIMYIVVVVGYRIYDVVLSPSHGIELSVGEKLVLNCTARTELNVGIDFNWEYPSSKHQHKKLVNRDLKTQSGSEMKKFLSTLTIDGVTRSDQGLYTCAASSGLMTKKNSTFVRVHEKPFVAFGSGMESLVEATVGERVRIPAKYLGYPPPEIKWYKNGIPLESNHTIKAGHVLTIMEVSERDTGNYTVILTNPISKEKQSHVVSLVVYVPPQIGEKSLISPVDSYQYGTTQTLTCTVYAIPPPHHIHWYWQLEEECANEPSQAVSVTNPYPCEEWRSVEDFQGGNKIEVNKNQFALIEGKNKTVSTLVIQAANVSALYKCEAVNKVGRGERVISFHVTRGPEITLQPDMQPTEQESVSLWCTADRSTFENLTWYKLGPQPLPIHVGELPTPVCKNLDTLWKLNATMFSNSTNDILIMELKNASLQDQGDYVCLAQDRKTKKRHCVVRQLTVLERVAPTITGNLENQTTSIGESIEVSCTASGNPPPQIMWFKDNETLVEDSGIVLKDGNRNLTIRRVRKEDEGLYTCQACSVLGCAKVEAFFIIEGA

binding result (可溶性ヒトVEGF受容体KDR 7N [1]): no binding (tested: 5μg/ml)
B1: 抗ヒトVEGF受容体Flt-1ヒト型CDR移植抗体KM8550 (antibody, V domains shown)
VH: QVQLVQSGAEVKKPGASVKVSCKASGYTFINYNMHWVRQAPGQGLEWMGAIFPGNGFTSYNQKFKGRVTITVDKSTSTAYMELSSLRSEDTAVYYCARDGDYYFDYWGQGTLVTVSS
VL: DIQMTQSPSSLSASVGDRVTITCSASSSVSYMHWYQQKPGKAPKLLIYRTSNLASGVPSRFSGSGSGTDFTLTISSLQPEDFATYYCHQWSMYTFGQGTKVEIK
notes: CDR-grafted IgG derived from KM1750; also called pKANTEX1750HV0LV0(I); 1750HV0 + 1750LV0(I)

binding result (可溶性ヒトVEGF受容体KDR 7N [1]): no binding (tested: 5μg/ml)
B2: 抗ヒトVEGF受容体Flt-1ヒト型CDR移植抗体KM8551 (antibody, V domains shown)
VH: QVQLVQSGAEVKKPGASVKVSCKASGYTFINYNMHWVRQAPGQGLEWMGAIFPGNGFTSYNQKFKGRVTITVDKSTSTAYMELSSLRSEDTAVYYCARDGDYYFDYWGQGTLVTVSS
VL: DIVMTQSPDSLAVSLGERATINCSASSSVSYMHWYQQKPGQPPKLLIYRTSNLASGVPDRFSGSGSGTDFTLTISSLQAEDVAVYYCHQWSMYTFGQGTKVEIK
notes: CDR-grafted IgG derived from KM1750; also called pKANTEX1750HV0LV0(IV); 1750HV0 + 1750LV0(IV)

binding result (可溶性ヒトVEGF受容体KDR 7N [1]): no binding (tested: 5μg/ml)
B3: 抗ヒトVEGF受容体Flt-1ヒト型CDR移植抗体KM8554 (antibody, V domains shown)
VH: QVQLVQSGAEVKKPGASVKVSCKASGYTFINYNMHWVRQAPGQGLEWMGAIFPGNGFTSYNQKFKGRVTITVDKSTSTAYMELSSLRSEDTAVYYCARDGDYYFDYWGQGTLVTVSS
VL: DIQMTQSPSSLSASVGEEVTITCSASSSVSYMHWYQQKPGKAPKLLIYRTSNLASGVPSRFSGSGSGTFYTLTISSLQPEDFATYYCHQWSMYTFGQGTKVEIK
notes: CDR-grafted IgG derived from KM1750 with modified VL framework; also called pKANTEX1750HV0LV4; 1750HV0 + 1750LV4

binding result (可溶性ヒトVEGF受容体KDR 7N [1]): no binding (tested: 5μg/ml)
B4: 抗ヒトVEGF受容体Flt-1ヒト型CDR移植抗体KM8552 (antibody, V domains shown)
VH: QVQLVQSGAEVKKPGASVKVSCKASGYTFINYNMHWVRQAPGQGLEWMGAIFPGNGFTSYNQKFKGRVTITVDKSTSTAYMQLRSLRSEDTAVYFCARDGDYYFDYWGQGTLVTVSS
VL: DIQMTQSPSSLSASVGDRVTITCSASSSVSYMHWYQQKPGKAPKLLIYRTSNLASGVPSRFSGSGSGTDFTLTISSLQPEDFATYYCHQWSMYTFGQGTKVEIK
notes: CDR-grafted IgG derived from KM1750 with modified VH framework; also called pKANTEX1750HV3LV0(I); 1750HV3 + 1750LV0(I)

binding result (可溶性ヒトVEGF受容体KDR 7N [1]): no binding (tested: 5μg/ml)
B5: 抗ヒトVEGF受容体Flt-1ヒト型CDR移植抗体KM8553 (antibody, V domains shown)
VH: QVQLVQSGAEVKKPGASVKVSCKASGYTFINYNMHWVRQAPGQGLEWMGAIFPGNGFTSYNQKFKGRVTITVDKSTSTAYMQLRSLRSEDTAVYFCARDGDYYFDYWGQGTLVTVSS
VL: DIVMTQSPDSLAVSLGERATINCSASSSVSYMHWYQQKPGQPPKLLIYRTSNLASGVPDRFSGSGSGTDFTLTISSLQAEDVAVYYCHQWSMYTFGQGTKVEIK
notes: CDR-grafted IgG derived from KM1750 with modified VH framework; also called pKANTEX1750HV3LV0(IV); 1750HV3 + 1750LV0(IV)

binding result (可溶性ヒトVEGF受容体KDR 7N [1]): no binding (tested: 5μg/ml)
B6: 抗ヒトVEGF受容体Flt-1ヒト型CDR移植抗体KM8555 (antibody, V domains shown)
VH: QVQLVQSGAEVKKPGASVKVSCKASGYTFINYNMHWVRQAPGQGLEWMGAIFPGNGFTSYNQKFKGRVTITVDKSTSTAYMQLRSLRSEDTAVYFCARDGDYYFDYWGQGTLVTVSS
VL: DIQMTQSPSSLSASVGEEVTITCSASSSVSYMHWYQQKPGKAPKLLIYRTSNLASGVPSRFSGSGSGTFYTLTISSLQPEDFATYYCHQWSMYTFGQGTKVEIK
notes: CDR-grafted IgG derived from KM1750 with modified VH and VL frameworks; also called pKANTEX1750HV3LV4; 1750HV3 + 1750LV4

IC50 (ヒトVEGF受容体Flt-1(細胞表面発現)): 0.041 µg/mL
binding result (可溶性ヒトVEGF受容体KDR 7N [2]): no binding (tested: 0.1μg/ml)
IC50 (可溶性ヒトVEGF受容体Flt-1 7N): 2 µg/mL
B7: 抗ヒトVEGF受容体Flt-1マウスモノクローナル抗体KM1750 (antibody, V domains shown)
VH: QAFLQQSGAELVRPGASVKMSCKASGYTFINYNMHWVKQTPRQGLEWIGAIFPGNGFTSYNQKFKGKATLTVDKSSSTVYMQLRSLTSEDSAVYFCARDGDYYFDYWGQGTTLTVSS
VL: QIVLTQSPAIMSASLGEEITLTCSASSSVSYMHWYQQKSGTSPKLLIYRTSNLASGVPFRFSGSGSGTFYSLTISSVEAEDAADYYCHQWSMYTFGGGTKLEIK
notes: cDNAs were cloned with mouse Cgamma1 and Ckappa probes; also called FERM BP-5700

binding result (可溶性ヒトVEGF受容体KDR 7N [3]): no binding (tested: 0.0152〜100ng/ml)
B8: 抗ヒトVEGF受容体Flt-1ヒト型キメラ抗体KM2550 (antibody, V domains shown)
VH: QAFLQQSGAELVRPGASVKMSCKASGYTFINYNMHWVKQTPRQGLEWIGAIFPGNGFTSYNQKFKGKATLTVDKSSSTVYMQLRSLTSEDSAVYFCARDGDYYFDYWGQGTTLTVSS
VL: QIVLTQSPAIMSASLGEEITLTCSASSSVSYMHWYQQKSGTSPKLLIYRTSNLASGVPFRFSGSGSGTFYSLTISSVEAEDAADYYCHQWSMYTFGGGTKLEIK
notes: Expressed in YB2/0 cells; also called pKANTEX1750

IC50 (ヒトVEGF受容体Flt-1(細胞表面発現)): 0.05 µg/mL
binding result (可溶性ヒトVEGF受容体KDR 7N [2]): no binding (tested: 0.1μg/ml)
IC50 (可溶性ヒトVEGF受容体Flt-1 7N): 1.1 µg/mL
B9: 抗ヒトVEGF受容体Flt-1マウスモノクローナル抗体KM1732 (antibody, V domains shown)
VH: QGQMQQSGAELVKPGASVKLSCKPSGFTFSSNYISWLKQKPGQSLEWIAWIYAGTGDASYNQKFTAKAHVTVDTSSSTAYMQLSSLTTEDSAIYYCARHGGDGYWFAYWGQGTLVTVSA
VL: QLVLTQSPAIMSASQGEKVTMTCSASSSVSYMHWYQQKSGTSPKRWIYDTSKLPSGVPARFSGSGSGTSYSLTISSMEAEDAATYYCQQWSSNPPTFGAGTKLELK
notes: Mouse hybridoma IgG (Balb/c mouse immunised with Flt-1 7N, screened on Flt-1 3N); cDNAs were cloned with mouse Cgamma1 and Ckappa probes; also called FERM BP-5698

binding result (可溶性ヒトVEGF受容体KDR 7N [3]): no binding (tested: 0.0152〜100ng/ml)
B10: 抗ヒトVEGF受容体Flt-1ヒト型キメラ抗体KM2532 (antibody, V domains shown)
VH: QGQMQQSGAELVKPGASVKLSCKPSGFTFSSNYISWLKQKPGQSLEWIAWIYAGTGDASYNQKFTAKAHVTVDTSSSTAYMQLSSLTTEDSAIYYCARHGGDGYWFAYWGQGTLVTVSA
VL: QLVLTQSPAIMSASQGEKVTMTCSASSSVSYMHWYQQKSGTSPKRWIYDTSKLPSGVPARFSGSGSGTSYSLTISSMEAEDAATYYCQQWSSNPPTFGAGTKLELK
notes: Expressed in YB2/0 cells; also called pKANTEX1732
